Patent US20200181274A1

Target: CD123 (interleukin-3 receptor alpha) on CD123-positive human AML cells (KG-1a, Kasumi-3, AML patient blasts) (human) (UniProt P26951)
Experiment: cell-based or functional assay

Sequence of UniProt P26951 (P26951 19-378): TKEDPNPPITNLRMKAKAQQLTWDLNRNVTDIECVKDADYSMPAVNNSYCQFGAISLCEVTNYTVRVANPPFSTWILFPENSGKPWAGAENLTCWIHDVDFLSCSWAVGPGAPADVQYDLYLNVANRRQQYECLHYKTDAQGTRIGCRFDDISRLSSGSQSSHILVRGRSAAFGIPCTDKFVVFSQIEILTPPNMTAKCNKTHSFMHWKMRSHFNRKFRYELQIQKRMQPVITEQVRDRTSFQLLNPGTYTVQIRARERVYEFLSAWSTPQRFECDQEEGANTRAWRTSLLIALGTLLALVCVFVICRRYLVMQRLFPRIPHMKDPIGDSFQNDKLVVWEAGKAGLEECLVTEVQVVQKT

- apoptosis (annexin-V positivity) of CD123-expressing KG-1a cells with AML subject-derived PBMC, 48 hours: 50%
- depletion of putative blast cell population in PBMC of 6 AML subjects, 48 hours: 20 to 90%
- reduction of putative leukemic blast number in AML PBMC, 9 or 90 ng/mL, 48 hours: 80%
Substance: XmAb14045 bispecific anti-CD123 x anti-CD3 Fab-scFv-Fc antibody (bispecific antibody)
- T cell-dependent cytotoxicity (RTCC) against CD123+ KG-1a cells with human PBMC as effectors, EC50: 0.28 ng/mL
- T cell-dependent cytotoxicity (RTCC) against CD123+ Kasumi-3 cells with human PBMC as effectors, EC50: 0.01 ng/mL
